The target of test [1] is M3-protein heterologously expressed on the surface of S. gordonii GP1221 (SGO M3) (S. pyogenes | not stated). Kind of test: radioligand binding; about 14 ng 125I-CIV or 125I-CB3 added to 250 µl bacterial suspension (S. gordonii expressing M3), room temperature 45 min, pellet-associated radioactivity as percentage of input.
Test [2] deals with Collagen type IV from human placenta, full length (human) (UniProt P02462). Kind of test: SPR; BIAcore 2000, CIV or CB3 immobilised on CM5 chip by amine coupling, M3-protein injected at 6.25-50 µg/ml, 10 mM HEPES, 100 mM NaCl, pH 7.4; apparent dissociation constants. In general terms: SPR reads the build-up and loss of mass on a sensor chip optically.

With “Collagen type IV from human placenta, full length (from UniProt P02462 28-1669; P08572 26-1712) (complex)”, in test [1], the percent of the 125I-labeled ligand bound is above 80%.
With “Cyanogen bromide fragment 3 (CB3) of collagen type IV (domain or fragment)”, the percent of the 125I-labeled ligand bound in test [1] was above 80%.
As to “GST-M3-protein (recombinant streptococcal M-protein type 3) (natural protein)”, in test [2], the Kd stood at 5 nM.

(Values after PMC2646144.)
